The results in this text go back to patent EP4471048A1, “PEPTIDE INHIBITORS OF INTERLEUKIN-23 RECEPTOR” (Zealand Pharma A/S, priority 2023, dated 2024).

One may read the IC50 as the concentration that gives 50% inhibition. Higher therefore signals weaker potency in that assay.

Experiment [1] addresses T1, Nluc-IL23R fusion protein (human, UniProt Q5VWK5 22-629).
T1 construct: range 22-629; Stably expressed in HEK293 cells; also called hIL-23R; human IL-23R; not shown: Nanoluc protein (N1371, Promega) at the N-terminus, after a secretion signal
T1 sequence (looked up): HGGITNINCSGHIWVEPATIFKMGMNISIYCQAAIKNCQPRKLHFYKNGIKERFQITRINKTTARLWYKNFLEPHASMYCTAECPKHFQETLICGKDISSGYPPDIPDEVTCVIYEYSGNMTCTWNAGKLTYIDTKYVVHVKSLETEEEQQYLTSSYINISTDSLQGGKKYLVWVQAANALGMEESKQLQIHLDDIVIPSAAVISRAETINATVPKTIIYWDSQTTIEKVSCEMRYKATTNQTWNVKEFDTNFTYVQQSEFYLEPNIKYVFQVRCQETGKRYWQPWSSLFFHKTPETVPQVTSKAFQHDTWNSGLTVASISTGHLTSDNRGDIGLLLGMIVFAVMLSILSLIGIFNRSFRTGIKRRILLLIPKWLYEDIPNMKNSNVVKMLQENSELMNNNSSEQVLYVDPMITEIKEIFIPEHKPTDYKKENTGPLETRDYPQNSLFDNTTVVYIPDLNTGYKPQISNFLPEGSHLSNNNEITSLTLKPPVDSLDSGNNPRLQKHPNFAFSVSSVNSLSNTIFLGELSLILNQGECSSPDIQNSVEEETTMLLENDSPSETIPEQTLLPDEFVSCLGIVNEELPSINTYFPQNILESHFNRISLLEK
The experiment can be described thus: BRET competition vs TAMRA-labelled peptide, Nluc-IL23R membranes. A general note: In BRET a luciferase serves as donor, and the signal depends on an acceptor being close.

In experiment [2] the target is T2, human IL-23R endogenously expressed on DB cells (human, UniProt Q5VWK5 24-629).
T2 sequence (looked up): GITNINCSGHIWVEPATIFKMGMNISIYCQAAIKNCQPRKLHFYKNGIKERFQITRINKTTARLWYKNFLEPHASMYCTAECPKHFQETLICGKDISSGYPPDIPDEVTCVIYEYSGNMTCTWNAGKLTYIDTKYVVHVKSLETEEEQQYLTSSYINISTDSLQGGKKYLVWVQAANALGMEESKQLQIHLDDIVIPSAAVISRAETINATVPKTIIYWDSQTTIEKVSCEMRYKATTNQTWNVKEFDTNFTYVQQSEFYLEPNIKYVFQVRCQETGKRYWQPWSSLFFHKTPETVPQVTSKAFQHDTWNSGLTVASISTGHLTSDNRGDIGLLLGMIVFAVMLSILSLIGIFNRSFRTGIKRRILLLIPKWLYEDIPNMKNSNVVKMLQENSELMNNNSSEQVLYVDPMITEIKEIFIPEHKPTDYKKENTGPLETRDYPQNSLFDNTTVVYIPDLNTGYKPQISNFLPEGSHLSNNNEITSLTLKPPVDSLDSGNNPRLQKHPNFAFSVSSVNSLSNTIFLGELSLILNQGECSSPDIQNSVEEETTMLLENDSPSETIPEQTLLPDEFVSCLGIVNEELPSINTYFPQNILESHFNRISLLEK
The experiment can be described thus: cell-based or functional assay.

Experiment [3] addresses T1, Nluc-IL23R fusion protein. Nature of the experiment: BRET competition vs TAMRA-labelled peptide, Nluc-IL23R membranes. This is another data set of the same source.

Like-named read-outs stand apart in the source and are kept apart here. *1 amine or outer side, *2 acyl side, *3 side chain or, on linkers, in order; H or OH if unused. Bridges are numbered along the chain shown (N, C = ends). [ ]: non-standard residue; d: D form. The star is where a group is joined. K(G) = Lys(Gly): lysine with a glycine on the side-chain amine, (2S)-2-amino-6-[(2-aminoacetyl)amino]hexanoic acid, O=C(CN[*:3])NCCCC[C@H](N[*:1])C(=O)[*:2]; γDab = iso-Dab: Dab joined to preceding residue by its side-chain amine, O=C([C@H](CCN[*:1])N[*:3])[*:2]; 2‑Amino‑6‑carboxyhexanoyl = 2-aminoheptanedioic acid residue; NH(4-(3-pyridyl)butyl) = c1cncc(CCCCN*)c1; NH(2-(3-pyridyl)ethyl) = c1cncc(CCN*)c1; Phe(4-Me) = Cc1ccc(C[C@H](N)C(=O)O)cc1; 2Nal = N[C@@H](Cc1ccc2ccccc2c1)C(=O)O; AEF = NCCOc1ccc(C[C@H](N)C(=O)O)cc1; 3Pal = N[C@@H](Cc1cccnc1)C(=O)O; β3hE = N[C@@H](CCC(=O)O)CC(=O)O; αMeL = CC(C)C[C@](C)(N)C(=O)O; dDab = NCC[C@@H](N)C(=O)O; Orn = NCCC[C@H](N)C(=O)O; Dab = NCC[C@H](N)C(=O)O; βAla = NCCC(=O)O

B1: Compound 65 (peptide)
peptide: KIVWQE[AEF][2Nal][αMeL][β3hE]-{NH(2-(3-pyridyl)ethyl)}
modifications: lactam 1-10, N-6
For the molecule B1, the “% displacement” value in experiment [1] worked out at 99%.

B2: Compound 44 (peptide)
peptide: KGWQE[AEF][2Nal][αMeL]E[Dab][3Pal]-NHMe
modifications: lactam 1-9, N-5
SMILES: CNC(=O)[C@H](Cc1cccnc1)NC(=O)[C@H](CCN)NC(=O)[C@@H]1CCC(=O)NCCCC[C@@H]2NC(=O)CC[C@H](NC(=O)[C@H](CCC(N)=O)NC(=O)[C@H](Cc3c[nH]c4ccccc34)NC(=O)CNC2=O)C(=O)N[C@@H](Cc2ccc(OCCN)cc2)C(=O)N[C@@H](Cc2ccc3ccccc3c2)C(=O)N[C@@](C)(CC(C)C)C(=O)N1
With B2, in experiment [2], the “hIL-23 (pSTAT3) antagonist % inhibition” value stood at 100% and the “hIL-23 (pSTAT3) antagonist IC50” value was found to be 15 nM. This molecule also yielded a % displacement in experiment [3] of 100%.

B3: Compound 3 (peptide)
peptide: [dK]TVWQD[AEF][2Nal][αMeL]E[Dab][3Pal]-NH2
modifications: lactam 1-10, N-6
SMILES: CC(C)C[C@]1(C)NC(=O)[C@H](Cc2ccc3ccccc3c2)NC(=O)[C@H](Cc2ccc(OCCN)cc2)NC(=O)[C@@H]2CC(=O)N[C@H](CCCCNC(=O)CC[C@@H](C(=O)N[C@@H](CCN)C(=O)N[C@@H](Cc3cccnc3)C(N)=O)NC1=O)C(=O)N[C@@H]([C@@H](C)O)C(=O)N[C@@H](C(C)C)C(=O)N[C@@H](Cc1c[nH]c3ccccc13)C(=O)N[C@@H](CCC(N)=O)C(=O)N2
For the molecule B3, in experiment [2], the “hIL-23 (pSTAT3) antagonist % inhibition” value was found to be 101% and the “hIL-23 (pSTAT3) antagonist IC50” value came out at 1.5 nM. Moreover, in experiment [3], the % displacement came out at 105%.

B4: Compound 15 (peptide)
peptide: [dDab]TWQD[AEF][2Nal][αMeL][2‑Amino‑6‑carboxyhexanoyl][Dab][3Pal]-NH2
modifications: lactam 1-9, N-5
In the case of B4, in experiment [1], the “% displacement” value was 105% and the IC50 is 4.9 nM.

B5: Compound 7 (peptide)
peptide: [dDab]TVWQE[AEF][2Nal][αMeL][2‑Amino‑6‑carboxyhexanoyl][Dab][3Pal]-NH2
modifications: lactam 1-10, N-6
As to B5, in experiment [2], the “hIL-23 (pSTAT3) antagonist % inhibition” value is 99% and the “hIL-23 (pSTAT3) antagonist IC50” value came out at 0.19 nM. In addition, the “% displacement” value in experiment [1] is 104%.

B6: Compound 74 (peptide)
peptide: EIVWQEXXXXXX
modifications: E(1c)(6c)^†IVWQE(6c)[Y(2-aminoethoxy)][2-Nal][2-Me-Leu][K(Me)](1c)[Dab][3-(3-Pyridyl)-Ala]-[NHMe]; (1c) [2,11] lactam; (6c) [2,7] lactam; ^† alpha-amine in bridge
In the case of B6, in experiment [1], the “% displacement” value is 99% and the IC50 is 0.076 nM.

B7: Compound 61 (peptide)
peptide: KIVWQE[AEF][2Nal][αMeL][β3hE][3Pal]-NHMe
modifications: lactam 1-10, N-6
notes: The partner of the (1c) bridge is printed as (cyclo1)
Consider B7, for which the “% displacement” value in experiment [1] was 99%.

B8: Compound 107 (peptide)
peptide: EWQEXXXXXX
modifications: [iso-Glu](1c)^‡(6c)^†WQE(6c)[Y(2-aminoethoxy)][2-Nal][2-Me-Leu][Dab](1c)[Dab][3-(3-Pyridyl)-Ala]-[NHMe]; (1c) [2,11] lactam; (6c) [2,7] lactam; ^† alpha-amine in bridge; ^‡ alpha-carboxylic acid in bridge
As to B8, in experiment [1], the “% displacement” value was 97% and the IC50 was 14 nM.

B9: Compound 25 (peptide)
peptide: KTVWQE[Phe(4-Me)][2Nal][αMeL][γDab](6‑(3-pyridyl)hexanoyl)
modifications: lactam 1-C, N-6; also: iso-Dab joined to preceding residue via its side-chain amine
For B9, in experiment [1], the “% displacement” value is 91% and the IC50 was 840 nM.

B10: Compound 46 (peptide)
peptide: [K(G)]WQE[AEF][2Nal][αMeL]E[Dab][3Pal]-NHMe
modifications: lactam 1-8, N-4
SMILES: CNC(=O)[C@H](Cc1cccnc1)NC(=O)[C@H](CCN)NC(=O)[C@@H]1CCC(=O)NCC(=O)NCCCC[C@@H]2NC(=O)CC[C@H](NC(=O)[C@H](CCC(N)=O)NC(=O)[C@H](Cc3c[nH]c4ccccc34)NC2=O)C(=O)N[C@@H](Cc2ccc(OCCN)cc2)C(=O)N[C@@H](Cc2ccc3ccccc3c2)C(=O)N[C@@](C)(CC(C)C)C(=O)N1
For the molecule B10, in experiment [2], the “hIL-23 (pSTAT3) antagonist % inhibition” value is 102% and the “hIL-23 (pSTAT3) antagonist IC50” value came out at 25 nM. In experiment [3], this molecule showed a % displacement of 104%.

B11: Compound 36 (peptide)
peptide: KTWQE[AEF][2Nal][αMeL]E[Dab][3Pal]-NHMe
modifications: lactam 1-9, N-5
SMILES: CNC(=O)[C@H](Cc1cccnc1)NC(=O)[C@H](CCN)NC(=O)[C@@H]1CCC(=O)NCCCC[C@@H]2NC(=O)CC[C@H](NC(=O)[C@H](CCC(N)=O)NC(=O)[C@H](Cc3c[nH]c4ccccc34)NC(=O)[C@H]([C@@H](C)O)NC2=O)C(=O)N[C@@H](Cc2ccc(OCCN)cc2)C(=O)N[C@@H](Cc2ccc3ccccc3c2)C(=O)N[C@@](C)(CC(C)C)C(=O)N1
Turning to B11, in experiment [2], the “hIL-23 (pSTAT3) antagonist % inhibition” value turned out to be 97% and the “hIL-23 (pSTAT3) antagonist IC50” value was 1.1 nM. The % displacement in experiment [3] worked out at 100%.

B12: Compound 9 (peptide)
peptide: [dDab]TVWQD[AEF][2Nal][αMeL][2‑Amino‑6‑carboxyhexanoyl][Dab][3Pal]-NH2
modifications: lactam 1-10, N-6
Take B12: the “% displacement” value in experiment [1] stood at 103%.

B13: Compound 31 (peptide)
peptide: KSVWQE[AEF][2Nal]GE-{NH(4-(3-pyridyl)butyl)}
modifications: lactam 1-10, N-6
SMILES: CC(C)[C@@H]1NC(=O)[C@H](CO)NC(=O)[C@@H]2CCCCNC(=O)CC[C@@H](C(=O)NCCCCc3cccnc3)NC(=O)CNC(=O)[C@H](Cc3ccc4ccccc4c3)NC(=O)[C@H](Cc3ccc(OCCN)cc3)NC(=O)[C@H](CCC(=O)N2)NC(=O)[C@H](CCC(N)=O)NC(=O)[C@H](Cc2c[nH]c3ccccc23)NC1=O
For B13, in experiment [1], the “% displacement” value stood at 98% and the IC50 came out at 49 nM.

B14: Compound 39 (peptide)
peptide: ETWQE[AEF][2Nal][αMeL]K[Dab][3Pal]-NHMe
modifications: lactam 1-9, N-5
SMILES: CNC(=O)[C@H](Cc1cccnc1)NC(=O)[C@H](CCN)NC(=O)[C@@H]1CCCCNC(=O)CC[C@@H]2NC(=O)CC[C@H](NC(=O)[C@H](CCC(N)=O)NC(=O)[C@H](Cc3c[nH]c4ccccc34)NC(=O)[C@H]([C@@H](C)O)NC2=O)C(=O)N[C@@H](Cc2ccc(OCCN)cc2)C(=O)N[C@@H](Cc2ccc3ccccc3c2)C(=O)N[C@@](C)(CC(C)C)C(=O)N1
Regarding B14, in experiment [2], the “hIL-23 (pSTAT3) antagonist % inhibition” value came out at 99% and the “hIL-23 (pSTAT3) antagonist IC50” value was found to be 2.4 nM. This molecule also returned a % displacement in experiment [3] of 98%.

B15: Compound 45 (peptide)
peptide: K[βAla]WQE[AEF][2Nal][αMeL]E[Dab][3Pal]-NHMe
modifications: lactam 1-9, N-5
SMILES: CNC(=O)[C@H](Cc1cccnc1)NC(=O)[C@H](CCN)NC(=O)[C@@H]1CCC(=O)NCCCC[C@@H]2NC(=O)CC[C@H](NC(=O)[C@H](CCC(N)=O)NC(=O)[C@H](Cc3c[nH]c4ccccc34)NC(=O)CCNC2=O)C(=O)N[C@@H](Cc2ccc(OCCN)cc2)C(=O)N[C@@H](Cc2ccc3ccccc3c2)C(=O)N[C@@](C)(CC(C)C)C(=O)N1
Consider B15, for which, in experiment [2], the “hIL-23 (pSTAT3) antagonist % inhibition” value turned out to be 100% and the “hIL-23 (pSTAT3) antagonist IC50” value turned out to be 58 pM. Further, in experiment [3], the % displacement amounted to 100%.

B16: Compound 40 (peptide)
peptide: ETWQE[AEF][2Nal][αMeL][Orn][Dab][3Pal]-NHMe
modifications: lactam 1-9, N-5
As for B16, the “% displacement” value in experiment [1] was found to be 100%.
